{"source": "paper PMC12581835", "about": "“A kinetic ruler controls mRNA poly(A) tail length”", "key": {"[1]": {"biological_target": "Nab2-FRB (S. cerevisiae | not stated)"}, "SII-Nab2 [2]": {"biological_target": "T1, SII-Nab2 (Saccharomyces cerevisiae, UniProt P32505 1-525)", "T1 sequence": "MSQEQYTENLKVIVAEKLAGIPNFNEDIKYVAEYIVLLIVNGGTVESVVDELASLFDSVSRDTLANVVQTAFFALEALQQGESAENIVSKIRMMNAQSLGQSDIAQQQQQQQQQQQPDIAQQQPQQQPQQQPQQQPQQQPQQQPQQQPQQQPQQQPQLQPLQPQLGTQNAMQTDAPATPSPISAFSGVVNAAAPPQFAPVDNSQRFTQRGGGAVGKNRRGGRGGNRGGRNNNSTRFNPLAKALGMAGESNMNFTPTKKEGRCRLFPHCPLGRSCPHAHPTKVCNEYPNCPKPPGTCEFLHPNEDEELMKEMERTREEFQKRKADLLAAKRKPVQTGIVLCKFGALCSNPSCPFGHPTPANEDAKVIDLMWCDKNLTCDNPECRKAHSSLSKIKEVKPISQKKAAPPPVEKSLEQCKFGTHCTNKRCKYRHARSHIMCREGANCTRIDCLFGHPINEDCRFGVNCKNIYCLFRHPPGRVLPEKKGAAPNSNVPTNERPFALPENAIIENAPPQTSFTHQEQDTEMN", "test": "switchSENSE; kon 2.05e6 +/- 0.14e6 M-1 s-1; Kd only in Fig 2E table; switchSENSE: 12.5 mM HEPES-KOH pH 8.0, 75 mM KOAc, 1 mM Mg(OAc)2, 0.025 mM EDTA, 25 C; EMSA: polyadenylation buffer + 5% glycerol, 10 nM RNA, 30 C 1.5 h, native PAGE pH 6.4 at 4 C", "settings": "protein: recombinant; tags: N-terminal SII; label: red dye on NL-B48; chip-tethered; 68 bp dsDNA (nicked) with 3' RNA overhang 60 nt"}, "SII-Nab2 [3]": {"biological_target": "T1, SII-Nab2", "test": "switchSENSE; kon 1.2e6 +/- 0.17e6 M-1 s-1; Kd only in Fig 2E table; switchSENSE: 12.5 mM HEPES-KOH pH 8.0, 75 mM KOAc, 1 mM Mg(OAc)2, 0.025 mM EDTA, 25 C; EMSA: polyadenylation buffer + 5% glycerol, 10 nM RNA, 30 C 1.5 h, native PAGE pH 6.4 at 4 C", "settings": "protein: recombinant; tags: N-terminal SII; label: red dye on NL-B48; chip-tethered; 68 bp dsDNA (nicked) with 3' RNA overhang 30 nt"}, "Nab2-6xHis [4]": {"biological_target": "T2, Nab2-6xHis (Saccharomyces cerevisiae, UniProt P32505 1-525)", "T2 sequence": "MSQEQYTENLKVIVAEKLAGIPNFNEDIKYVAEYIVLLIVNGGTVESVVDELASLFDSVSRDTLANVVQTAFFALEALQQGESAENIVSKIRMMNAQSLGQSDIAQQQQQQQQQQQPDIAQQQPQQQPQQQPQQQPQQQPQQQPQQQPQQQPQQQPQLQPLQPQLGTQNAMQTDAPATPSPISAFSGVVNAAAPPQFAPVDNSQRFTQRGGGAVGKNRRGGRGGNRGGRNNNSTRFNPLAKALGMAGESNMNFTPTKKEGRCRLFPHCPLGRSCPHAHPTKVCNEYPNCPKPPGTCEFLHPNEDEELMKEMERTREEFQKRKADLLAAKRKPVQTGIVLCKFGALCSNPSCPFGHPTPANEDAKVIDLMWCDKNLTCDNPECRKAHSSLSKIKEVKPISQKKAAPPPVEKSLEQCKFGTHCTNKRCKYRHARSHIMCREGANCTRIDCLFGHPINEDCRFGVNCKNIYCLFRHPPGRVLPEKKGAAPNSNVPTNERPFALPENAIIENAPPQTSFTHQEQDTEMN", "test": "EMSA; Hill coefficient 2.7; multiple shifted bands; switchSENSE: 12.5 mM HEPES-KOH pH 8.0, 75 mM KOAc, 1 mM Mg(OAc)2, 0.025 mM EDTA, 25 C; EMSA: polyadenylation buffer + 5% glycerol, 10 nM RNA, 30 C 1.5 h, native PAGE pH 6.4 at 4 C", "settings": "protein: recombinant; tags: C-terminal 6xHis; label: Atto680; single strand"}, "Nab2-6xHis [5]": {"biological_target": "T2, Nab2-6xHis", "test": "SEC-MALS; bimodal peak; one Nab2 with 1-3 A30; dimer less stable; switchSENSE: 12.5 mM HEPES-KOH pH 8.0, 75 mM KOAc, 1 mM Mg(OAc)2, 0.025 mM EDTA, 25 C; EMSA: polyadenylation buffer + 5% glycerol, 10 nM RNA, 30 C 1.5 h, native PAGE pH 6.4 at 4 C", "settings": "protein: recombinant; tags: C-terminal 6xHis; single strand"}}}
{"molecule": "Nab2-FKBP12", "values": [{"measurement": "modal poly(A) tail length of the substrate RNA that escaped early inhibition, 1 µM Nab2 with rapamycin (∼42 As in a reaction without rapamycin)", "setting": "[1]", "value": 36, "unit": "As"}]}
{"molecule": "rA60 nanolever (mixed, 3' 60 nt RNA on DNA handle) DNA 1: ATTGTGCTCGTCAGTAGTGTAAAAAAAAAAAAAAAAAAAAAAAAAAAAAAAAAAAAAAAAAAAAAAAAAAAAAAAAAAAA DNA 2: ACACTACTGACGAGCACAATATCAGCGTTCGATGCTTCCGACTAATCAGCCATATCAGCTTACGACTA DNA 3: TAGTCGTAAGCTGATATGGCTGATTAGTCGGAAGCATCGAACGCTGAT", "values": [{"measurement": "binding signal", "setting": "SII-Nab2 [2]", "value": "~5 fold higher affinity than rA30"}]}
{"molecule": "rA30 nanolever (mixed, 3' 30 nt RNA on DNA handle) DNA 1: ATTGTGCTCGTCAGTAGTGTAAAAAAAAAAAAAAAAAAAAAAAAAAAAAA DNA 2: ACACTACTGACGAGCACAATATCAGCGTTCGATGCTTCCGACTAATCAGCCATATCAGCTTACGACTA DNA 3: TAGTCGTAAGCTGATATGGCTGATTAGTCGGAAGCATCGAACGCTGAT", "values": [{"measurement": "binding signal", "setting": "SII-Nab2 [3]", "value": "~0.2 affinity relative to rA60"}]}
{"molecule": "Atto680-A59 (R003) (ssRNA) RNA: AAAAAAAAAAAAAAAAAAAAAAAAAAAAAAAAAAAAAAAAAAAAAAAAAAAAAAAAAAA", "values": [{"measurement": "binding result", "setting": "Nab2-6xHis [4]", "value": "binds"}]}
{"molecule": "AAAAAAAAAAAAAAAAAAAAAAAAAAAAAA (ssRNA, phosphate)", "note": "[A30 (R002)]", "values": [{"measurement": "binding result", "setting": "Nab2-6xHis [5]", "value": "binds"}]}
